Consider three substances from PMC9173704.

The target in experiment [1] is plasminogen (Homo sapiens) (UniProt P00747). The following applies: cited from earlier work.
Experiment [2] concerns the target recombinant streptococcal enolase (Sen) from GAS strain AP53 (Streptococcus pyogenes (GAS) strain AP53). Nature of the experiment: SPR; Sen amine-coupled to a CM-5 chip (~1,000 RU); hPg as analyte, 9 to 2,400 nM; 25°C, HBS-EP+ (10 mM Na-Hepes/150 mM NaCl/3 mM EDTA/0.05% polysorbate 20, pH 7.4); equilibrium (affinity) fit.
Experiment [3] has the same target.
The target is the same in experiment [4]. In words: ELISA; Sen coated on high protein binding 96-well plates overnight at 4°C; hPg added at 25°C for 1 h; detected with HRP-conjugated monoclonal mouse-anti hPg; saturation curve.
Experiment [5] deals with recombinant mature PAM (Asn1-Gln351, plus (His)6) (Streptococcus pyogenes (GAS) strain AP53) (UniProt P49054).
The target in experiment [6] is recombinant streptococcal enolase (Sen) from GAS strain AP53 (Streptococcus pyogenes (GAS) strain AP53). Nature of the experiment: AUC; sedimentation velocity, 20°C, 50 mM Na phosphate/0.1 M NaCl, pH 7.4; 30,000 rpm for Sen, 35,000 rpm for hEno; three protein dilutions; no concentration-dependent dissociation down to at least 0.1 mg/ml.
Chain of recombinant streptococcal enolase (Sen) from GAS strain AP53 (Streptococcus pyogenes (GAS) strain AP53) (A2RFE3 whole entry): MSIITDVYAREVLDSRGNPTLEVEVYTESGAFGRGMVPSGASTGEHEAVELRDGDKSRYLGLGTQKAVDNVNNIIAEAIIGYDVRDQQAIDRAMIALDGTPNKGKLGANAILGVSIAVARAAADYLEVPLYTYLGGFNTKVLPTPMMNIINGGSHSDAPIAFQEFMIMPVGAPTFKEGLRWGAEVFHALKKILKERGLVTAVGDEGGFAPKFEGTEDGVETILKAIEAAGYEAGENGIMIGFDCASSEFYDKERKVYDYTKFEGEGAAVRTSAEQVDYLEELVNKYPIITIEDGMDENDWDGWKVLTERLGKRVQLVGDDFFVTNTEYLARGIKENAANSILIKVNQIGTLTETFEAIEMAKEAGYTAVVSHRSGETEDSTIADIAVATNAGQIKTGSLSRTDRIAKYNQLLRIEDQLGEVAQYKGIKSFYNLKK
The target is the same in experiment [7]. In words: SEC-MALS; each protein 100 μl of 1 mg/ml on a WTC-030S5 column, PBS, pH 7.4, flow rate 0.5 ml/min.

Chain of UniProt P00747 (P00747 20-810): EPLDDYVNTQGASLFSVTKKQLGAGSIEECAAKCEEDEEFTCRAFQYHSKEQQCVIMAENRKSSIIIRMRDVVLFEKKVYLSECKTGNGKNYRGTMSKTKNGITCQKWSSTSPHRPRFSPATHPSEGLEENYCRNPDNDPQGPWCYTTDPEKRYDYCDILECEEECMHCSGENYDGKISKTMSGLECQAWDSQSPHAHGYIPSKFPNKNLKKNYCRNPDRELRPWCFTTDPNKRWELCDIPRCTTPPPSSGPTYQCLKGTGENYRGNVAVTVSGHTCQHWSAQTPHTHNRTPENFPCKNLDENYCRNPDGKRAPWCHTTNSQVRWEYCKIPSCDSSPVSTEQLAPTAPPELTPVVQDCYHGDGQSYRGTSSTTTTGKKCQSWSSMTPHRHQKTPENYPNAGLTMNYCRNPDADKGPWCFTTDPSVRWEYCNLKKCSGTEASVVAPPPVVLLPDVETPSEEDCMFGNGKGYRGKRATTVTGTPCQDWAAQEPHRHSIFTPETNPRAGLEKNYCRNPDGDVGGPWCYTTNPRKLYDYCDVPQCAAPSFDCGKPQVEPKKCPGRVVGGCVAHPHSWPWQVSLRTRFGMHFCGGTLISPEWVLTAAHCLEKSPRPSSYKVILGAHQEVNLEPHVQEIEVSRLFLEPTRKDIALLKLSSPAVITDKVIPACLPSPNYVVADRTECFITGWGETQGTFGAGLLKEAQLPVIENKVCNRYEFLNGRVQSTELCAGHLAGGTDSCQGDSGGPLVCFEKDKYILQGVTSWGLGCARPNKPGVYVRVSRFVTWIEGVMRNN

Consider “plasminogen-binding M-protein (PAM) (from UniProt P49054)”, for which, in experiment [1], the Kd was 1 nM.
As for “recombinant human plasminogen (hPg) (natural protein)”, the C50 in experiment [2] stood at 111 nM; in experiment [4] it was 125 nM. In addition, the rate of activation of hPg by tPA with Sen bound to DOPG vesicles against vesicles without Sen, hydrolysis of S2251 in experiment [3] is 6 to 8 fold. For the same substance, the rate of activation of hPg by tPA on PAM-coated plates against free hPg, hydrolysis of S2251 in experiment [5] came out at 2.5 fold.
With “recombinant streptococcal enolase (Sen) from GAS strain AP53 (enzyme)”, the stoichiometry N in experiment [6] and in experiment [7] was 8 throughout.
